# Patent US10940200
# B1: 1D11.16.8 anti-mouse-TGF-β1/2/3 mouse IgG1 mAb (antibody, from another filing, V domains shown)
# VH: QVQLQQSGPELVRPGASVKLSCKASGYIFITYWMNWVKQRPGQGLEWIGQIFPASGSTNYNEMFEGKATLTVDTSSSTAYMQLSSLTSEDSAVYYCARGDGNYALDAMDYWGQGTSVTVSS
# VL: DIVLTQSPASLAVSLGQRATISCRASESVDSYGNSFMHWYQQKSGQPPKLLIYLASNLESGVPARFSGSGSRTDFTLTIDPVEADDAATYYCQQNNEDPLTFGAGTKLEIK
# What was measured:
# [1] = biological target: TGF-β present in IFN-β-treated mouse 2D2-FIG splenocyte cultures (endogenous) (mouse); test: cell-based or functional assay
# [2] = biological target: recombinant TGF-β1 (rat TGFβ1 sequence expressed in HEK cells, heat-activated) (rat) (UniProt P17246); test: cell-based or functional assay
# UniProt P17246, sequence (P17246 279-390 limits assumed): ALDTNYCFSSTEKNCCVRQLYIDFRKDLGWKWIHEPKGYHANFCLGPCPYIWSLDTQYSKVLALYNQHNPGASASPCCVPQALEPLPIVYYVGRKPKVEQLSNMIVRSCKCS
binder,measurement,setting,value
B1,"inhibition of IFN-β-induced FOXP3+ Treg induction (GFP) in MOG35-55-stimulated 2D2-FIG splenocytes, 7 days",[1],1 µg/mL
same,"inhibition of TGF-β-induced FOXP3+ Treg induction (GFP) in MOG35-55-stimulated 2D2-FIG splenocytes, 7 days",[2],1 µg/mL
